Test results from patent US20240124545A1, “COMPOSITIONS AND METHODS RELATING TO THE TREATMENT OF DISEASES” (ILC THERAPEUTICS LIMITED, priority 2021, published 2024).
Several values for one entry are separate records, joined by “and”; a condition that tells them apart may be missing. Equal entries are not always repeated. Where two headings read alike, the source gives them in different places.

Columns and labels:
[1] = tested on: SARS-CoV-1; assay type: cell-based, SARS-HCoV2003VA2774; details: Vero E6 cells
[2] = tested on: HIV-1 LAI; experiment: HIV-1 LAI infectivity assay with β-galactosidase readout (Experiment 5); assay type: cell-based, human immunodeficiency virus type 1 (HIV-1) LAI strain; details: for HIV-1 Infectivity in HeLa-CD4-βgal cells (% vehicle): mean of duplicates; for HIV Infectivity in HeLa CD4 βgal cells (β-galactosidase units): individual values
[3] = tested on: SARS-CoV-1; assay type: cell-based
[4] = tested on: human RSV; experiment: Plaque assay with human RSV (FIG. 9); assay type: cell-based
[5] = tested on: natural killer cells; experiment: NK cell monoculture model (cell clustering); assay type: cell-based
[6] = tested on: HRSV Long strain; experiment: HRSV infectivity assay, immunostaining readout in HEp-2 cells; assay type: cell-based, human respiratory syncytial virus (HRSV) Long strain; details: for HRSV Infectivity in HEp-2 cells (% vehicle): 72 hours, average of duplicates; for HRSV Infectivity in HEp-2 cells - Raw OD- Absorbance (490 nm): duplicate A490 values
[7] = tested on: HeLa-CD4-βgal cells
[8] = tested on: SK-OV-3 NucLight Red cells co-cultured with natural killer (NK) cells; experiment: Live cell imaging assay of immune cell killing (IncuCyte ZOOM); assay type: cell-based
Protocol: The effect of a hybrid recombinant interferon was tested in a live cell imaging assay of immune cell killing on an IncuCyte ZOOM platform. SK-OV-3 ovarian cancer cells with red labelled nuclei (SK-OV-3 NucLight Red) were used as target cells in the study. For immune cell killing, the cells were co-cultured with natural killer (NK) cells and positive controls consisted of cells treated with IL-2 and IL-12. Apoptosis was detected by staining caspase 3/7 positive objects while cell number was determined by counting of red nuclei. […] An initial optimisation experiment was carried out that tested 4 ratios of target and effector cells. […] Results were compared to no treatment controls, vehicle treated controls and IL-2/IL-12 treated cells. All conditions were tested using cells in co-culture (SK-OV-3 NucLight and NK cells) and mono-culture (SK-OV-3 NucLight Red). Cells were monitored for 4 days using an IncuCyte ZOOM, and IncuCyte software was used to measure green (apoptosis) and red (cell number) object count over time. Area under the curve (AUC) analysis was used to quantitate apoptosis and cell number over the time course.

[9] = tested on: IL 17F; experiment: Suppression of IL-17F; assay type: cell-based; details: listed as Hybrid 2
[10] = tested on: Herpes Simplex Virus Type 1 (HSV1); experiment: HSV1 infection of primary human keratinocytes; assay type: cell-based
[11] = tested on: HeLa-CD4-βgal cells; remark: listed apart in the source
[12] = tested on: HIV-1 LAI; details: for HIV Infectivity in HeLa-CD4-βgal cells (% vehicle): 48 hours
[13] = tested on: HEp-2 cells
[14] = tested on: IL-17A; experiment: Suppression of IL-17A synthesis; assay type: cell-based

B1: Sample B: recombinant IFN-α10-IFN-α14 hybrid interferon alpha, amino acid sequence SEQ ID NO:3; sample B in Experiments 4 and 5 (protein)
chain: CDLPQTHSLGNRRALILLGQMGRISPFSCLKDRHDFRIPQEEFDGNQFQKAQAISVLHEMMQQTFNLFSTKNSSAAWDETLLEKFYIELFQQMNDLEACVIQEVGVEETPLMNEDSILAVKKYFQRITLYLIERKYSPCAWEVVRAEIMRSLSFSTNLQKRLRRKD
inhibition of the cytopathic effect following SARS-CoV-1 infection [1]: inhibit the cytopathic effect
HIV-1 Infectivity in HeLa-CD4-βgal cells (% vehicle) ([2]; 0.0001 ng/mL, 48 hours): 102.4 % vehicle
HIV Infectivity in HeLa CD4 βgal cells (β-galactosidase units) ([2]; 0.0001 ng/mL): 971,384 RLU and 1,112,752 RLU
HIV-1 Infectivity in HeLa-CD4-βgal cells (% vehicle) ([2]; 0.001 ng/mL, 48 hours): 96.3 % vehicle
HIV Infectivity in HeLa CD4 βgal cells (β-galactosidase units) ([2]; 0.001 ng/mL): 1,062,736 RLU and 896,209 RLU
HIV-1 Infectivity in HeLa-CD4-βgal cells (% vehicle) ([2]; 0.01 ng/mL, 48 hours): 77.7 % vehicle
HIV Infectivity in HeLa CD4 βgal cells (β-galactosidase units) ([2]; 0.01 ng/mL): 761,455 RLU and 820,758 RLU
HIV-1 Infectivity in HeLa-CD4-βgal cells (% vehicle) ([2]; 0.1 ng/mL, 48 hours): 58.0 % vehicle
HIV Infectivity in HeLa CD4 βgal cells (β-galactosidase units) ([2]; 0.1 ng/mL): 588,618 RLU and 595,007 RLU
HIV-1 Infectivity in HeLa-CD4-βgal cells (% vehicle) ([2]; 1 ng/mL, 48 hours): 36.0 % vehicle
HIV Infectivity in HeLa CD4 βgal cells (β-galactosidase units) ([2]; 1.0 ng/mL): 343,482 RLU and 394,833 RLU
HIV-1 Infectivity in HeLa-CD4-βgal cells (% vehicle) ([2]; 10 ng/mL, 48 hours): 30.2 % vehicle
HIV Infectivity in HeLa CD4 βgal cells (β-galactosidase units) ([2]; 10 ng/mL): 302,405 RLU and 317,823 RLU
HIV-1 Infectivity in HeLa-CD4-βgal cells (% vehicle) ([2]; 100 ng/mL, 48 hours): 28.9 % vehicle
HIV Infectivity in HeLa CD4 βgal cells (β-galactosidase units) ([2]; 100 ng/mL): 278,916 RLU and 314,495 RLU
HIV-1 Infectivity in HeLa-CD4-βgal cells (% vehicle) ([2]; 1,000 ng/mL, 48 hours): 30.7 % vehicle
HIV Infectivity in HeLa CD4 βgal cells (β-galactosidase units) ([2]; 1,000 ng/mL): 299,975 RLU and 330,705 RLU
HIV-1 Infectivity in HeLa-CD4-βgal cells (% vehicle) ([2]; 10,000 ng/mL, 48 hours): 31.5 % vehicle
HIV Infectivity in HeLa CD4 βgal cells (β-galactosidase units) ([2]; 10,000 ng/mL): 300,821 RLU and 344,654 RLU
IC50 (infectivity), HIV-1 Antiviral Assay (HeLa-CD4-Bgal cells) ([2]; HIV-1 LAI, 48 hours): 0.03 ng/mL
infection signal still observed ([2]; highest concentrations tested (10 μg/mL)): about 25%
inhibition of plaque formation following SARS-CoV-1 infection [3]: inhibit the cytopathic effect and plaque formation
inhibition of a plaque assay with human RSV [4]: inhibition of a plaque assay with human RSV
direct activation of natural killer cells (cell clustering) [5]: very strong direct activation of natural killer cells
HRSV Infectivity in HEp-2 cells (% vehicle) ([6]; 0.001 ng/mL): 91.5 % vehicle
HRSV Infectivity in HEp-2 cells - Raw OD- Absorbance (490 nm) ([6]; 0.001 ng/mL): 0.647 and 0.675
HRSV Infectivity in HEp-2 cells (% vehicle) ([6]; 0.01 ng/mL): 71.3 % vehicle
HRSV Infectivity in HEp-2 cells - Raw OD- Absorbance (490 nm) ([6]; 0.01 ng/mL): 0.550 and 0.573
HRSV Infectivity in HEp-2 cells (% vehicle) ([6]; 0.1 ng/mL): 27.6 % vehicle
HRSV Infectivity in HEp-2 cells - Raw OD- Absorbance (490 nm) ([6]; 0.1 ng/mL): 0.353 and 0.338
HRSV Infectivity in HEp-2 cells (% vehicle) ([6]; 1.0 ng/mL): 9.7 % vehicle
HRSV Infectivity in HEp-2 cells - Raw OD- Absorbance (490 nm) ([6]; 1.0 ng/mL): 0.244 and 0.270
HRSV Infectivity in HEp-2 cells (% vehicle) ([6]; 10 ng/mL): 12.3 % vehicle
HRSV Infectivity in HEp-2 cells - Raw OD- Absorbance (490 nm) ([6]; 10 ng/mL): 0.248 and 0.292
HRSV Infectivity in HEp-2 cells (% vehicle) ([6]; 100 ng/mL): 11.9 % vehicle
HRSV Infectivity in HEp-2 cells - Raw OD- Absorbance (490 nm) ([6]; 100 ng/mL): 0.283 and 0.253
HRSV Infectivity in HEp-2 cells (% vehicle) ([6]; 1,000 ng/mL): 9.6 % vehicle
HRSV Infectivity in HEp-2 cells - Raw OD- Absorbance (490 nm) ([6]; 1,000 ng/mL): 0.262 and 0.251
HRSV Infectivity in HEp-2 cells (% vehicle) ([6]; 10,000 ng/mL): 6.6 % vehicle
HRSV Infectivity in HEp-2 cells - Raw OD- Absorbance (490 nm) ([6]; 10,000 ng/mL): 0.252 and 0.230
IC50 (infectivity), HRSV Antiviral Assay ([6]; HRSV Long, Hep-2 cells, 3 days): 0.03 ng/mL and 0.027 ng/mL
CC50, Cytotoxicity Assay (HeLa-CD4-βgal cells) [7]: >10000 ng/mL
IC50 for the reduction in cell number [8]: 1.3×10^6 IU/ml
apoptosis response of cells in mono-culture ([8]; SK-OV-3 NucLight Red mono-culture): only a marginal response
EC50 for apoptosis induction ([8]; co-culture model): 1.5×10^6 IU/ml
AUC of apoptosis (caspase 3/7 positive object count over time) ([8]; co-culture model, top dose (3×10^6 IU/ml), 4 days, vehicle controls 200): 1174
AUC values for cell number (red nuclei count over time) ([8]; top dose, vehicle controls 39921): 19501
suppression of IL 17F [9]: inhibits both 17 A and F very strongly
effect on HSV1 infection [10]: reduces Herpes Simplex Virus Type 1 (HSV1) infection
CC50, Cytotoxicity Assay (uninfected HeLa-CD4-Bgal cells) [11]: >10000 ng/mL
IC50 (infectivity), HIV-1 Antiviral Assay [12]: 0.009 ng/mL
HIV Infectivity in HeLa CD4 βgal cells (β-galactosidase units) ([12]; 0.0001 ng/mL): 1,159,421 RLU and 1,143,347 RLU
HIV Infectivity in HeLa-CD4-βgal cells (% vehicle) ([12]; 0.0001 ng/mL): 101.4 % vehicle
HIV Infectivity in HeLa-CD4-βgal cells (% vehicle) ([12]; 0.001 ng/mL): 91.9 % vehicle
HIV Infectivity in HeLa CD4 βgal cells (β-galactosidase units) ([12]; 0.01 ng/mL): 729,428 RLU and 754,356 RLU
HIV Infectivity in HeLa-CD4-βgal cells (% vehicle) ([12]; 0.01 ng/mL): 65.2 % vehicle
HIV Infectivity in HeLa CD4 βgal cells (β-galactosidase units) ([12]; 0.1 ng/mL): 505,696 RLU and 431,727 RLU
HIV Infectivity in HeLa-CD4-βgal cells (% vehicle) ([12]; 0.1 ng/mL): 41.1 % vehicle
HIV Infectivity in HeLa CD4 βgal cells (β-galactosidase units) ([12]; 1.0 ng/mL): 338,683 RLU and 353,822 RLU
HIV Infectivity in HeLa-CD4-βgal cells (% vehicle) ([12]; 1.0 ng/mL): 30.3 % vehicle
HIV Infectivity in HeLa CD4 βgal cells (β-galactosidase units) ([12]; 10 ng/mL): 292,575 RLU and 343,225 RLU
HIV Infectivity in HeLa-CD4-βgal cells (% vehicle) ([12]; 10 ng/mL): 27.8 % vehicle
HIV Infectivity in HeLa CD4 βgal cells (β-galactosidase units) ([12]; 100 ng/mL): 289,671 RLU and 320,902 RLU
HIV Infectivity in HeLa-CD4-βgal cells (% vehicle) ([12]; 100 ng/mL): 26.7 % vehicle
HIV Infectivity in HeLa CD4 βgal cells (β-galactosidase units) ([12]; 1,000 ng/mL): 340,382 RLU and 330,715 RLU
HIV Infectivity in HeLa-CD4-βgal cells (% vehicle) ([12]; 1,000 ng/mL): 29.4 % vehicle
HIV Infectivity in HeLa CD4 βgal cells (β-galactosidase units) ([12]; 10,000 ng/mL): 363,841 RLU and 344,014 RLU
HIV Infectivity in HeLa-CD4-βgal cells (% vehicle) ([12]; 10,000 ng/mL): 31.0 % vehicle
CC50, Cytotoxicity Assay (Hep-2 cells) [13]: >10000 ng/mL
suppression of IL-17A synthesis ([14]; listed as HYBRID 2): suppression of IL-17A synthesis
suppression of IL-17A synthesis ([14]; listed as Hybrid 2): inhibits both 17 A and F very strongly
